Measurements as given in PMC3097226.

B1: CD95 (Fas/APO-1): N118Q (protein)
parent chain: MLGIWTLLPLVLTSVARLSSKSVNAQVTDINSKGLELRKTVTTVETQNLEGLHHDGQFCHKPCPPGERKARDCTVNGDEPDCVPCQEGKEYTDKAHFSSKCRRCRLCDEGHGLEVEINCTRTQNTKCRCKPNFFCNSTVCEHCDPCTKCEHGIIKECTLTSNTKCKEEGSRSNLGWLCLLLLPIPLIVWVKRKEVQKTCRKHRKENQGSHESPTLNPETVAINLSDVDLSKYITTIAGVMTLSQVKGFVRKNGVNEAKIDEIKNDNVQDTAEQKVQLLRNWHQLHGKKEAYDTLIKDLKKANLCTLAEKIQTIILKDITSDSENSNFRNEIQSLV
B2: CD95 (Fas/APO-1): DMM (protein)
parent chain: B1 parent chain
B3: CD95 (Fas/APO-1): N118Q/N136Q (protein)
parent chain: B1 parent chain
B4: CD95 (Fas/APO-1): VCN (protein)
parent chain: B1 parent chain
B5: CD95 (Fas/APO-1): N136Q (protein)
parent chain: B1 parent chain

Columns and labels:
[1] = cycloheximide chase, Western blot, HEK293T; details: glycan lost; control: WT CD95
[2] = confocal microscopy, stable HeLa lines; details: glycan lost; control: WT CD95
[3] = high molecular weight CD95 complexes after anti-APO-1, Western blot; details: glycan lost; control: WT CD95
[4] = anti-APO-1 surface staining (flow cytometry), transient HeLa; details: glycan lost; control: WT CD95
[5] = anti-APO-1 surface staining, flow cytometry; details: glycan changed form; control: untreated SKW6.4 cells

Protein	degradation_or_half_life [1]	localisation_or_trafficking [2]	oligomerisation [3]	localisation_or_trafficking [4]	localisation_or_trafficking [5]
B1	no change	no change	no change	no change	–
B2	–	–	–	–	no change
B3	no change	–	no change	–	–
B4	–	–	–	–	no change
B5	no change	no change	no change	no change	–
